Laboratory results reported in US20140178332A1 (published 2014).

Experiments:
[1] = biological target: T1, recombinant purified human IL-12 p70 (human, UniProt P29459 23-219); test: SPR (BIAcore) as in Example 1.1.B
T1 construct: Disulfide-linked heterodimer of p35 and p40; also called hIL-12; Hu IL-12
T1 sequence 1: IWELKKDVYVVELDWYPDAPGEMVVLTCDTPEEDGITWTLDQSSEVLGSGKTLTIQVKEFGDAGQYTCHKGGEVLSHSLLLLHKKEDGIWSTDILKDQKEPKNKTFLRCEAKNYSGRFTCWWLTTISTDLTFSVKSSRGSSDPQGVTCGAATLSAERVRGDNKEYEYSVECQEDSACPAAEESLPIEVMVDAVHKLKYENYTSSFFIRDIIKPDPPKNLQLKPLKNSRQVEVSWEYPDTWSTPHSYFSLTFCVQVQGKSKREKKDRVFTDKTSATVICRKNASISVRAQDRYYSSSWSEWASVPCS
T1 sequence 2: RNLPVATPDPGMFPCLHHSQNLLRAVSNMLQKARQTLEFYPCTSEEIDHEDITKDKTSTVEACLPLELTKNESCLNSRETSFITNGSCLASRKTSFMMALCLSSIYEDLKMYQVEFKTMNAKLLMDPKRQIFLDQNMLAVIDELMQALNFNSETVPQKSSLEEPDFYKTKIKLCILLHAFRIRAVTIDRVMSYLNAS
Procedure: The BIACORE assay (Biacore, Inc, Piscataway, N.J.) determines the affinity of antibodies with kinetic measurements of on-, off-rate constants. Binding of antibodies to recombinant purified human IL-12 p70 or recombinant purified human IL-12 p40 were determined by surface plasmon resonance-based measurements with a Biacore® 3000 instrument (Biacore® AB, Uppsala, Sweden) using running HBS-EP (10 mM HEPES [pH 7.4], 150 mM NaCl, 3 mM EDTA, and 0.005% surfactant P20) at 25° C. All chemicals were obtained from Biacore® AB (Uppsala, Sweden) or otherwise from a different source as described in the text. Approximately 5000 RU of goat anti-mouse IgG, (Fcγ), fragment specific polyclonal antibody (Pierce Biotechnology Inc, Rockford, Ill.) diluted in 10 mM sodium acetate (pH 4.5) was directly immobilized across a CM5 research grade biosensor chip using a standard amine coupling kit according to manufacturer's instructions and procedures at 25 μg/ml. Unreacted moieties on the biosensor surface were blocked with ethanolamine. Modified carboxymethyl dextran surface in flowcell 2 and 4 was used as a reaction surface. Unmodified carboxymethyl dextran without goat anti-mouse IgG in flow cell 1 and 3 was used as the reference surface. For kinetic analysis, rate equations derived from the 1:1 Langmuir binding model were fitted simultaneously to association and dissociation phases of all eight injections (using global fit analysis) with the use of Biaevaluation 4.0.1 software. Purified antibodies were diluted in HEPES-buffered saline for capture across goat anti-mouse IgG specific reaction surfaces. Mouse antibodies to be captured as a ligand (25 μg/ml) were injected over reaction matrices at a flow rate of 5 μl/min. The association and dissociation rate constants, kₒₙ (unit M⁻¹ s⁻¹) and koff (unit s⁻¹) were determined under a continuous flow rate of 25 μl/min. Rate constants were derived by making kinetic binding measurements at ten different antigen concentrations ranging from 10-200 nM. The equilibrium dissociation constant (unit M) of the reaction between mouse antibodies and recombinant purified human IL-12 p70 or recombinant purified human IL-12 p40 was then calculated from the kinetic rate constants by the following formula: KD=koff/kₒₙ. Binding is recorded as a function of time and kinetic rate constants are calculated.

[2] = biological target: T2, recombinant purified cyno IL-12 p70 (cynomolgus monkey); test: cell-based or functional assay
T2 chain 1: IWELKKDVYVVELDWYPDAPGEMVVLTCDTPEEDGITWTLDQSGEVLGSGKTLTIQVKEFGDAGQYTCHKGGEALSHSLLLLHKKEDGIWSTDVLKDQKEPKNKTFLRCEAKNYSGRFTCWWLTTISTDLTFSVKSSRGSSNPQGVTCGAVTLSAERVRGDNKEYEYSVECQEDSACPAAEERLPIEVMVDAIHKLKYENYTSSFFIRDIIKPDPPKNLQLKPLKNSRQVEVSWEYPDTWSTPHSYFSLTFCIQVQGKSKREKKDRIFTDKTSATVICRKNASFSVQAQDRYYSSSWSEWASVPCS
T2 chain 2: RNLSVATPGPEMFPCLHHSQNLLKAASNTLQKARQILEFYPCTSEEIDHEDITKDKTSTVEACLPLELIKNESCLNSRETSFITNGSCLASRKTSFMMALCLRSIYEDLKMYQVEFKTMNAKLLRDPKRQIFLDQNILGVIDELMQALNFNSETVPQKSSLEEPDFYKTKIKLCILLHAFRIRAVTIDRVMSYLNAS

[3] = biological target: T1, recombinant purified human IL-12 p70; test: cell-based or functional assay
[4] = biological target: T2, recombinant purified cyno IL-12 p70; test: cell-based or functional assay
[5] = biological target: T1, recombinant purified human IL-12 p70; test: cell-based or functional assay; remark: listed apart in the source

B1: anti-IL-12p40 hybrid antibody 1A6.4 (antibody, human IgG1, kappa, L234A L235A, V domains shown)
VH: QVTLKESGPGILKPSQTLSLTCSFSGFSLSTSGMGVSWIRQPSGKGLEWLAHIWWDGDNYYNPSLKSQLTISKDTSRNQVFLRIATVDTADTATYYCARRTRVNYAMDYWGQGTSVTVSS
VL: EIVMTQSPATLSVSPGERATLSCKASQSVSNDVAWYQQKPGQAPRLLIYYASNRYTGIPARFSGSGSGTEFTLTISSLQSEDFAVYYCQQDYNSPWTFGGGTKVEIKR
notes: Hybrid: chimeric murine H chain paired with CDR-grafted L chain
Kd [1]: 1 nM
koff [1]: 0.00011 s⁻¹
kon [1]: 110000 M⁻¹ s⁻¹
Av. IC50 (nM) Cyno IL-12, PHA blast assay [2]: 1.2 nM
Av. IC50 (nM) huIL-12, PHA blast assay [3]: 2.1 nM

B2: anti-IL-12p40 hybrid antibody 1A6.7 (antibody, human IgG1, kappa, L234A L235A, V domains shown)
VH: QVTLKESGPGILKPSQTLSLTCSFSGFSLSTSGMGVSWIRQPSGKGLEWLAHIWWDGDNYYNPSLKSQLTISKDTSRNQVFLRIATVDTADTATYYCARRTRVNYAMDYWGQGTSVTVSS
VL: DIVMTQSPDSLAVSLGERATINCKASQSVSNDVAWYQQKPGQPPKLLIYYASNRYTGVPDRFSGSGSGTDFTLTISSLQAEDVAVYYCQQDYNSPWTFGGGTKVEIKR
Av. IC50 (nM) Cyno IL-12, PHA blast assay [2]: 0.35 nM
Av. IC50 (nM) huIL-12, PHA blast assay [3]: 0.29 nM

B3: chimeric anti-human IL-12p40 antibody 1D4-Chim (antibody, human IgG1, kappa, L234A L235A, V domains shown)
VH: QVTLKESGPGILQPSQTLSLTCSFSGFSLRKSVMGVSWIRQPSGKGLEWLAHIYWDDDKYYNPSLKSRLTISKDPSRNQVFLKITSVDTADAATYYCTRRGIRSAMDYWGQGTSVTVSS
VL: SVVMTQTPKFLLVSAGDRVTITCKASQSVSNDVAWYQQKPGQSPKLLIYYASNRYTGVPDRFTGSGYGTDFTFIISTVRAEDLAVYFCQQDYNSPWTFGGGTKLEIKR
Average IC50 (nM) Cyno IL-12, PHA blast IFN-γ assay [4]: 0.07 nM
Average IC50 (nM) Human IL-12, PHA blast IFN-γ assay [5]: 0.021 nM

B4: chimeric anti-human IL-12p40 antibody 1A6-Chim (antibody, human IgG1, kappa, L234A L235A, V domains shown)
VH: QVTLKESGPGILKPSQTLSLTCSFSGFSLSTSGMGVSWIRQPSGKGLEWLAHIWWDGDNYYNPSLKSQLTISKDTSRNQVFLRIATVDTADTATYYCARRTRVNYAMDYWGQGTSVTVSS
VL: SVVMTQTPKFLLVSAGDRVTITCKASQSVSNDVAWFQQKPGQSPKLLIYYASNRYTGVPDRFTGSGYGTDFTFTISTVQAEDLAVYFCQQDYNSPWTFGGGTKLEIKR
Average IC50 (nM) Cyno IL-12, PHA blast IFN-γ assay [4]: 0.02 nM
Average IC50 (nM) Human IL-12, PHA blast IFN-γ assay [5]: 0.021 nM

B5: anti-IL-12p40 hybrid antibody 1D4.4 (antibody, human IgG1, kappa, L234A L235A, V domains shown)
VH: EVTLRESGPALVKPTQTLTLTCTFSGFSLSKSVMGVSWIRQPPGKALEWLAHIYWDDDKYYNPSLKSRLTISKDTSKNQVVLTMTNMDPVDTATYYCARRGIRSAMDYWGQGTTVTVSS
VL: SVVMTQTPKFLLVSAGDRVTITCKASQSVSNDVAWYQQKPGQSPKLLIYYASNRYTGVPDRFTGSGYGTDFTFIISTVRAEDLAVYFCQQDYNSPWTFGGGTKLEIKR
Kd [1]: 0.074 nM
koff [1]: 2.1e-05 s⁻¹
kon [1]: 280000 M⁻¹ s⁻¹
Av. IC50 (nM) Cyno IL-12, PHA blast assay [2]: 1.1 nM
Av. IC50 (nM) huIL-12, PHA blast assay [3]: 0.64 nM

B6: chimeric anti-human IL-12p40 antibody 3G7-Chim (antibody, human IgG1, kappa, L234A L235A, V domains shown)
VH: QVQLQQSGAELMKPGASVKISCKATGYTFNDYWIEWVKQRPGHGLEWIGGFSHGSGSTNYNEKFKGKATFTADSSSNTAYMQLSSLTSEDSAVYYCARRRFRGMDYWGQGTSVTVSS
VL: SIVMTQTPKFLLVSAGDRVTITCKASQSVSNDVAWYQQKPGQSPKLLIYYASNRYTGVPDRFTGSGYGTDFTFTITTVQAEDLAVYFCQQDYSSPWSFGGGTKLEIKR
Average IC50 (nM) Cyno IL-12, PHA blast IFN-γ assay [4]: 0.32 nM
Average IC50 (nM) Human IL-12, PHA blast IFN-γ assay [5]: 0.12 nM

B7: chimeric antibody 3G7/1D4-Chim (chimeric 3G7 heavy chain with 1D4 chimeric light chain) (antibody, human IgG1, kappa, L234A L235A, V domains shown)
VH: QVQLQQSGAELMKPGASVKISCKATGYTFNDYWIEWVKQRPGHGLEWIGGFSHGSGSTNYNEKFKGKATFTADSSSNTAYMQLSSLTSEDSAVYYCARRRFRGMDYWGQGTSVTVSS
VL: SVVMTQTPKFLLVSAGDRVTITCKASQSVSNDVAWYQQKPGQSPKLLIYYASNRYTGVPDRFTGSGYGTDFTFIISTVRAEDLAVYFCQQDYNSPWTFGGGTKLEIKR
Average IC50 (nM) Cyno IL-12, PHA blast IFN-γ assay [4]: 0.29 nM
Average IC50 (nM) Human IL-12, PHA blast IFN-γ assay [5]: 0.11 nM

B8: anti-IL-12p40 hybrid antibody 1D4.5 (antibody, human IgG1, kappa, L234A L235A, V domains shown)
VH: QVTLKESGPGILQPSQTLSLTCSFSGFSLRKSVMGVSWIRQPSGKGLEWLAHIYWDDDKYYNPSLKSRLTISKDPSRNQVFLKITSVDTADAATYYCTRRGIRSAMDYWGQGTSVTVSS
VL: DIVMTQSPDSLAVSLGERATINCKASQSVSNDVAWYQQKPGQPPKLLIYYASNRYTGVPDRFSGSGSGTDFTLTISSLQAEDVAVYYCQQDYNSPWTFGGGTKVEIKR
Kd [1]: 0.11 nM
koff [1]: 3.1e-05 s⁻¹
kon [1]: 300000 M⁻¹ s⁻¹
Av. IC50 (nM) Cyno IL-12, PHA blast assay [2]: 0.11 nM
Av. IC50 (nM) huIL-12, PHA blast assay [3]: 0.053 nM

B9: anti-IL-12p40 hybrid antibody 1A6.3 (antibody, human IgG1, kappa, L234A L235A, V domains shown)
VH: EVTLKESGPVLVKPTETLTLTCTVSGFSLSTSGMGVSWIRQPPGKALEWLAHIWWDGDNYYNPSLKSRLTISKDTSKSQVVLTMTNMDPVDTATYYCARRTRVNYAMDYWGQGTTVTVSS
VL: SVVMTQTPKFLLVSAGDRVTITCKASQSVSNDVAWFQQKPGQSPKLLIYYASNRYTGVPDRFTGSGYGTDFTFTISTVQAEDLAVYFCQQDYNSPWTFGGGTKLEIKR
Kd [1]: 0.14 nM
koff [1]: 2.6e-05 s⁻¹
kon [1]: 190000 M⁻¹ s⁻¹
Av. IC50 (nM) Cyno IL-12, PHA blast assay [2]: 0.049 nM
Av. IC50 (nM) huIL-12, PHA blast assay [3]: 0.068 nM

B10: anti-IL-12p40 hybrid antibody 1A6.8 (antibody, human IgG1, kappa, L234A L235A, V domains shown)
VH: EVTLRESGPALVKPTQTLTLTCTFSGFSLSTSGMGVSWIRQPPGKALEWLAHIWWDGDNYYNPSLKSRLTISKDTSKNQVVLTMTNMDPVDTATYYCARRTRVNYAMDYWGQGTTVTVSS
VL: SVVMTQTPKFLLVSAGDRVTITCKASQSVSNDVAWFQQKPGQSPKLLIYYASNRYTGVPDRFTGSGYGTDFTFTISTVQAEDLAVYFCQQDYNSPWTFGGGTKLEIKR
Av. IC50 (nM) Cyno IL-12, PHA blast assay [2]: 0.06 nM
Av. IC50 (nM) huIL-12, PHA blast assay [3]: 0.08 nM

B11: chimeric anti-human IL-12p40 antibody 8E1-Chim (antibody, human IgG1, kappa, L234A L235A, V domains shown)
VH: EVKLVESGGGLVQPGGSRKLSCAASGFTFSDYGMVWVRQAPGKGLEWVASISSGSSNIYYADTVKGRFTISRDDPNNTLFLQMRSLRSEDTAMYYCARNPYWGQGTTLTVSS
VL: DIVMTQSQKFMSTSVGDRVSVTCKASQNVGTNVAWYQQKPGQSPKGLIYSASHRYSGVPDRFAGSGSGTDFTLTISNVQSEDLAEYFCQQYNSYPLTFGGGTKLELKR
Average IC50 (nM) Cyno IL-12, PHA blast IFN-γ assay [4]: 0.15 nM
Average IC50 (nM) Human IL-12, PHA blast IFN-γ assay [5]: 0.17 nM
